For one data set, the system named is ANGPTL3. The conditions noted are these: phase I clinical trials; cited from earlier work.
Data set [1] concerns PCSK9 gene splice site. Format: cell-based, human. As for the experimental part:
(§1) PCSK9 gRNAs were co-transfected with an equivalent amount of in vitro transcribed ABE8.8 mRNA MA002 (1:1 ratio by weight) into primary hepatocytes and processed as described in detailed methods. In one set of experiments, extracted genomic DNA was analyzed for base editing of the target splice site with next-generation sequencing of PCR amplicons generated around the target sites. Samples were prepared using the Nextera XT DNA library preparation kit (Illumina) according to the manufacturer's protocol. Briefly, two rounds of PCR were performed first to amplify the region of interest and second to add DNA sequences required for next generation sequencing and sample identification to the initial product. The final amplicon was sequenced on the Illumina MiSeq instrument according to the manufacturer's protocol.
(§2) Similarly, three gRNAs (GA098, GA099, GA100) were synthesized matching the 5′-[…]-3′ (SEQ ID NO: 15) (GA091) human protospacer sequence, as well as four gRNAs (GA067/GA101, GA102, GA103, GA347) matching the 5′-[…]-3′ (SEQ ID NO: 14) (GA067) cynomolgus protospacer sequence, but with more extensive chemical modifications of various kinds (Table 1). GA066 and GA095 contain the same chemical composition and modification pattern, as do GA067 and GA101 with one another. […] Each of the gRNAs described in Table 8, with an equivalent amount of in vitro transcribed ABE8.8 mRNA MA002 (1:1 ratio by weight), were co-transfected into primary human hepatocytes and primary cynomolgus hepatocytes via MessengerMax reagent, using various dilutions to assess for editing activity at different concentrations of test article. Three days after transfection, genomic DNA was harvested from the hepatocytes, and then assessed for base editing of the target splice site with next-generation sequencing.
Modifications and/or truncations to either the spacer or tracr portion of the gRNA was assessed by alteration of the GA066 spacer (5′-[…]-3′ (SEQ ID NO: 13)) (Table 12). […] Each of the gRNAs with an equivalent amount of in vitro transcribed ABE8.8 mRNA (1:1 ratio by weight) were co-transfected into primary human hepatocytes and primary cynomolgus hepatocytes and processed as described in detailed methods. […]

Data set [2] deals with PCSK9 gene splice site. Format: cell-based, cynomolgus monkey. As for the experimental part:
as §1, §2
Modifications and/or truncations to either the spacer or tracr portion of the gRNA was assessed by alteration of the GA066 spacer (5′-[…]-3′ (SEQ ID NO: 13)) (Table 12). […] Each of the gRNAs with an equivalent amount of in vitro transcribed ABE8.8 mRNA (1:1 ratio by weight) were co-transfected into primary human hepatocytes and primary cynomolgus hepatocytes and processed as described in detailed methods.
Lipid nanoparticles containing ABE8.8 mRNA and a gRNA matching the human/cynomolgus 5′-[…]-3′ (SEQ ID NO: 13) sequence (GA066) that targets the splice donor at the 5′ end of PCSK9 intron 1 were formulated at a 1:1 ratio by weight. The LNPs were administered to primary human hepatocytes and primary cynomolgus hepatocytes, using various dilutions to assess for editing activity at different concentrations of test article. LNP containing Cas9 mRNA and a gRNA matching a protospacer sequence in another gene, ANGPTL3, as a positive control was used for these experiments.
Plating, culturing, and transfection of primary hepatocytes. Primary human liver hepatocytes (PHH) and primary cynomolgus liver hepatocytes (PCH) from BioIVT were cultured per the manufacturer's protocol. Briefly, primary human hepatocytes and primary cyno hepatocytes were obtained as frozen aliquots from BioIVT.

Consider evinacumab, for which the lipid lowering effect result in the data set with ANGPTL3 is on record as “significant lipid lowering effect”.

B1: GA088: PCSK9 gRNA for ABE8.8 splice site editing, Human/Cyno (nucleic acid)
guide: CCCAGGCTGCAGCTCCCACTGTTTTAGAGCTAGAAATAGCAAGTTAAAATAAGGCTAGTCCGTTATCAACTTGAAAAAGTGGCACCGAGTCGGTGCTTTT
modifications: 2'-O-methyl at 1, 2, other sugars and backbone not given here; further chemistry not fully specified
notes: PCSK9 gRNA for ABE8.8 splice site editing, Human/Cyno
For the molecule B1, in the data set on PCSK9 gene splice site [1], the “Human Primary Hepatocytes-splice site editing % 1250 ng/mL” value came to 3.6%, the “Human Primary Hepatocytes-splice site editing % 2500 ng/mL” value turned out to be 6.2% and the “Human Primary Hepatocytes-splice site editing % 5000 ng/mL” value came to 7.2%. Moreover, in the data set with PCSK9 gene splice site [2], the “Cynomolgous Primary Hepatocytes-splice site editing % 1250 ng/mL” value is 17.0%, the “Cynomolgous Primary Hepatocytes-splice site editing % 2500 ng/mL” value came to 23.0% and the “Cynomolgous Primary Hepatocytes-splice site editing % 5000 ng/mL” value was 24.8%.

B2: GA087: PCSK9 gRNA for ABE8.8 splice site editing, Human/Cyno (nucleic acid)
guide: UCACCTGCTCCTGAGGGGCCGTTTTAGAGCTAGAAATAGCAAGTTAAAATAAGGCTAGTCCGTTATCAACTTGAAAAAGTGGCACCGAGTCGGTGCTTTT
modifications: 2'-O-methyl at 1, 2, other sugars and backbone not given here; further chemistry not fully specified
notes: as for B1
In the case of B2, in the data set with PCSK9 gene splice site [1], the “Human Primary Hepatocytes-splice site editing % 1250 ng/mL” value was 1.0%, the “Human Primary Hepatocytes-splice site editing % 2500 ng/mL” value amounted to 1.4% and the “Human Primary Hepatocytes-splice site editing % 5000 ng/mL” value was found to be 1.9%. Moreover, in the data set on PCSK9 gene splice site [2], the “Cynomolgous Primary Hepatocytes-splice site editing % 1250 ng/mL” value is given as 0.2%, the “Cynomolgous Primary Hepatocytes-splice site editing % 2500 ng/mL” value is recorded as 0.2% and the “Cynomolgous Primary Hepatocytes-splice site editing % 5000 ng/mL” value amounted to 0.2%.

B3: GA081: PCSK9 gRNA for ABE8.8 splice site editing, Human/Cyno (nucleic acid)
guide: TTTCCAGGTCATCACAGTTGGTTTTAGAGCTAGAAATAGCAAGTTAAAATAAGGCTAGTCCGTTATCAACTTGAAAAAGTGGCACCGAGTCGGTGCTTTT
modifications: listed as RNA; modified_base 1: mod_base = OTHER; note = 2'-O-Methyl-uridine phosphorothioate; modified_base 2: mod_base = OTHER; modified_base
notes: as for B1
As for B3, in the data set on PCSK9 gene splice site [1], the “Human Primary Hepatocytes-splice site editing % 1250 ng/mL” value stood at 4.3%, the “Human Primary Hepatocytes-splice site editing % 2500 ng/mL” value worked out at 6.1% and the “Human Primary Hepatocytes-splice site editing % 5000 ng/mL” value was found to be 8.3%. In the data set with PCSK9 gene splice site [2], the “Cynomolgous Primary Hepatocytes-splice site editing % 1250 ng/mL” value is 0.3%, the “Cynomolgous Primary Hepatocytes-splice site editing % 2500 ng/mL” value was 0.3% and the “Cynomolgous Primary Hepatocytes-splice site editing % 5000 ng/mL” value worked out at 0.3%.

B4: GA080: PCSK9 gRNA for ABE8.8 splice site editing, Human/Cyno (nucleic acid)
guide: CCTTTCCAGGTCATCACAGTGTTTTAGAGCTAGAAATAGCAAGTTAAAATAAGGCTAGTCCGTTATCAACTTGAAAAAGTGGCACCGAGTCGGTGCTTTT
modifications: 2'-O-methyl at 1, 2, other sugars and backbone not given here; further chemistry not fully specified
notes: as for B1
As to B4, in the data set on PCSK9 gene splice site [1], the “Human Primary Hepatocytes-splice site editing % 1250 ng/mL” value was 0.4%, the “Human Primary Hepatocytes-splice site editing % 2500 ng/mL” value stood at 0.5% and the “Human Primary Hepatocytes-splice site editing % 5000 ng/mL” value worked out at 0.6%. In the data set on PCSK9 gene splice site [2], the “Cynomolgous Primary Hepatocytes-splice site editing % 1250 ng/mL” value is recorded as 7.1%, the “Cynomolgous Primary Hepatocytes-splice site editing % 2500 ng/mL” value amounted to 8.8% and the “Cynomolgous Primary Hepatocytes-splice site editing % 5000 ng/mL” value came out at 7.0%.

The record behind these values is patent US20250152746A1, “BASE EDITING OF ANGPTL3 AND METHODS OF USING SAME FOR TREATMENT OF DISEASE” (Verve Therapeutics, Inc., priority 2020, published 2025).
